Patent US20210389324

Tests used:
[1] = biological target: T1, CFP-FOXG1-YFP
T1 chain: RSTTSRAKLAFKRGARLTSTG

[2] = biological target: T2, CFP-SFRP1-YFP
T2 chain: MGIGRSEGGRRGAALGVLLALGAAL

[3] = biological target: T3, CFP-SFRP2-YFP
T3 chain: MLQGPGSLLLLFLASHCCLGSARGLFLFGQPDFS

[4] = biological target: T4, CFP-NT5M-YFP
T4 chain: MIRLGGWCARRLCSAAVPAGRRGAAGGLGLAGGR

[5] = biological target: T5, CFP-SFRP4-YFP
T5 chain: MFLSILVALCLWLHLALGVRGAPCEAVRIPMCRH

[6] = biological target: T6, CFP-SFVp12-YFP 11:6
T6 chain: DVEELEYHAGAGVVETP

[7] = biological target: T7, CFP-SFVp12-YFP 19:6
T7 chain: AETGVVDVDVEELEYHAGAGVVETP

B1: Recombinant ZIKV ns2B/ns3 Protease (protein)
chain: MGSSHHHHHHSSGLVPRGSHMVDMYIERAGDITWEKDAEVTGNSPRLDVALDESGDFSLVEDDGPPMAGGGGSGGGGSGALWDVPAPKEVKKGETTDGVYRVMTRGLLGSTQVGVGVMQEGVFHTMWHVTKGSALRSGEGRLDPYWGDVKQDLVSYSGPWKLDAAWDGHSEVQLLAVPPGERARNIQTLPGIFKTKDGDIGAVALDYPAGTSGSPILDKSGRVIGLYGNGVVIKNGSYVSAITQGRR
cleavage of CFP-YFP substrate [1]: ZIKV ns2B-ns3 protease | cleavage of CFP-YFP substrate [2]: ZIKV ns2B-ns3 protease | cleavage of CFP-YFP substrate [3]: Control, not cleaved by ZIKV ns2B-ns3 protease | cleavage of CFP-YFP substrate [4]: ZIKV ns2B-ns3 protease | cleavage of CFP-YFP substrate [5]: Control, not cleaved by ZIKV ns2B-ns3 protease

B2: Recombinant CHIKV nsP2 protease (protein)
chain: SNAFQNKANVCWAKSLVPILETAGIKLNDRQWSQIIQAFKEDKAYSPEVALNEICTRMYGVDLDSGLFSKPLVSVYYADNHWDNRPGGKMFGFNPEAASILERKYPFTKGKWNINKQICVTTRRIEDFNPTTNIIPVNRRLPHSLVAEHRPVKGERMEWLVNKINGHHVLLVSGYNLALPTKRVTWVAPLGVRGADYTYNLELGLPATLGRYDLVVINIHTPFRIHHYQQCVDHAMKLQMLGGDSLRLLKPGGSLLIRAYGYADRTSERVICVLGRKFRSSRALKPPCVTSNTEMFFLFSNFDNGRRNFTTHVMNNQLNAAFVG
cleavage of CFP-YFP substrate [6]: CHIKV and VEEV nsP2 cysteine protease | cleavage of CFP-YFP substrate [7]: CHIKV and VEEV nsP2 cysteine protease
